Target: human FcRn (human) (UniProt P55899)
Assay: SPR (BIAcore) steady state, immobilized IgG, human FcRn 16-2860 nM, pH 6.0

Sequence of human FcRn (human) (P55899 24-297 limits assumed, chain 1 of 2): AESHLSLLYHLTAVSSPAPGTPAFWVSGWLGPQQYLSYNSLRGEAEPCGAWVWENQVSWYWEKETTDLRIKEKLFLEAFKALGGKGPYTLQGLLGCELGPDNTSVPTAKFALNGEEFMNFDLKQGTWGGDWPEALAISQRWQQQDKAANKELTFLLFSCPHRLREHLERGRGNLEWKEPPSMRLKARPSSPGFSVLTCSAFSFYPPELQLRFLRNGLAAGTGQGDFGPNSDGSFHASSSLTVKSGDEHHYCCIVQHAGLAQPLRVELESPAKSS
Sequence of human FcRn (human) (P61769 21-119 limits assumed, chain 2 of 2, further chain): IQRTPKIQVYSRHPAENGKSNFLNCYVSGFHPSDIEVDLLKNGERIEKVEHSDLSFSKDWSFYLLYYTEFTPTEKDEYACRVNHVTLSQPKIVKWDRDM

Substance | Kd
MEDI-524 R255V (antibody) | 11.3 µM
MEDI-524 G385S + Q386I (antibody) | 3.03 µM
MEDI-524 (wild type) (antibody) | 2.68 µM
MEDI-524 L309N (antibody) | 15.9 µM
